Results from patent US10724034B2, “Genetic encoding of chemical post-translational modification for phage-displayed libraries” (THE GOVERNORS OF THE UNIVERSITY OF ALBERTA, priority 2014, dated 2020).

Experiments:
streptavidin [1] = molecular target: streptavidin (UniProt P22629); assay: panning/deep seq., Streptavadin rep 1
streptavidin [2] = molecular target: streptavidin (UniProt P22629); assay: panning/deep seq., Streptavadin rep 2
streptavidin [3] = molecular target: streptavidin (UniProt P22629); assay: panning/deep seq., Streptavadin rep 3
streptavidin [4] = molecular target: streptavidin (UniProt P22629); assay: panning/deep seq., Ratio col 1 (Streptavadin/Blank by arithmetic)
streptavidin [5] = molecular target: streptavidin (UniProt P22629); assay: panning/deep seq., Ratio col 2 (Streptavadin/Naive by arithmetic)
streptavidin [6] = molecular target: streptavidin (UniProt P22629); assay: panning/deep seq., Ratio col 3 (Streptavadin/Bulk amplified by arithmetic)
[7] = molecular target: T1, Bovine carbonic anhydrase II (bovine, UniProt P00921 2-260); assay: panning/deep seq., Carbonic rep 1 [Carbonic Anhydrase]
T1 construct: Commercial protein; also called BCA

[8] = molecular target: T1, Bovine carbonic anhydrase II; assay: panning/deep seq., Carbonic rep 2 [Carbonic Anhydrase]
[9] = molecular target: T1, Bovine carbonic anhydrase II; assay: panning/deep seq., Carbonic rep 3 [Carbonic Anhydrase]
[10] = molecular target: T1, Bovine carbonic anhydrase II; assay: panning/deep seq., Ratio col 1 (Carbonic/Blank by arithmetic) [Carbonic Anhydrase]
[11] = molecular target: T1, Bovine carbonic anhydrase II; assay: panning/deep seq., Ratio col 2 (Carbonic/Naive by arithmetic) [Carbonic Anhydrase]
[12] = molecular target: T1, Bovine carbonic anhydrase II; assay: panning/deep seq., Ratio col 3 (Carbonic/Bulk amplified by arithmetic) [Carbonic Anhydrase]

T1 sequence (P00921 2-260 limits assumed): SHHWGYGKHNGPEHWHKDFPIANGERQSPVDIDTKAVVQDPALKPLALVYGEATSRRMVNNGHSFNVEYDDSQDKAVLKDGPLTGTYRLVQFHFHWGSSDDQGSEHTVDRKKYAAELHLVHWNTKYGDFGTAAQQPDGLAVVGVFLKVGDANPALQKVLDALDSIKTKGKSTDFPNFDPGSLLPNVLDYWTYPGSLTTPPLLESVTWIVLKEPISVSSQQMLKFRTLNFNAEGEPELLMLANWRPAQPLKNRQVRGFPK
Sequence of streptavidin (P22629 37-163 limits assumed): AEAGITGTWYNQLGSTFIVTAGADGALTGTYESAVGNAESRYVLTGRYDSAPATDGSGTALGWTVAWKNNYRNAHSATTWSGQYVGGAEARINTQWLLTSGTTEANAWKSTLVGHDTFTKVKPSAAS

Substance | copy number (streptavidin [1]) | copy number (streptavidin [2]) | copy number (streptavidin [3]) | Ratio (streptavidin [4]) | Ratio (streptavidin [5]) | Ratio (streptavidin [6]) | copy number [7] | copy number [8] | copy number [9] | Ratio [10] | Ratio [11] | Ratio [12]
Bio-AHPL (peptide) | 382 | 113 | 333 | 920 | 138 | 138 |  |  |  |  |  | 
Bio-GYTQ (peptide) | 240 | 227 | 147 | 682 | 68 | 614 |  |  |  |  |  | 
Bio-HFTN (peptide) | 246 | 135 | 98 | 532 | 532 | 68 |  |  |  |  |  | 
Bio-HKLN (peptide) | 95 | 98 | 72 | 294 | 88 | 12 |  |  |  |  |  | 
Bio-HLRV (peptide) | 58 | 110 | 168 | 373 | 373 | 56 |  |  |  |  |  | 
Bio-HMPR (peptide) | 118 | 121 | 71 | 344 | 52 | 44 |  |  |  |  |  | 
Bio-HPSY (peptide) | 85 | 214 | 104 | 448 | 67 | 58 |  |  |  |  |  | 
Bio-PALP (peptide) | 125 | 108 | 210 | 492 | 492 | 89 |  |  |  |  |  | 
Bio-PFVQ (peptide) | 82 | 61 | 54 | 219 | 219 | 99 |  |  |  |  |  | 
Bio-PHLP (peptide) | 84 | 37 | 123 | 271 | 14 | 15 |  |  |  |  |  | 
Bio-PHYN (peptide) | 53 | 110 | 70 | 259 | 21 | 58 |  |  |  |  |  | 
Bio-PLAQ (peptide) | 110 | 71 | 50 | 257 | 38 | 33 |  |  |  |  |  | 
Bio-PQMS (peptide) | 282 | 248 | 453 | 1090 | 41 | 197 |  |  |  |  |  | 
Bio-PSIG (peptide) | 145 | 125 | 174 | 493 | 21 | 56 |  |  |  |  |  | 
Bio-PTHT (peptide) | 154 | 178 | 118 | 500 | 75 | 64 |  |  |  |  |  | 
Bio-PVSI (peptide) | 75 | 94 | 128 | 330 | 49 | 74 |  |  |  |  |  | 
Bio-VHAW (peptide) | 73 | 39 | 119 | 257 | 257 | 38 |  |  |  |  |  | 
Bio-VHNT (peptide) | 29 | 87 | 110 | 251 | 75 | 75 |  |  |  |  |  | 
Bio-WYPH (peptide) | 85 | 150 | 127 | 402 | 121 | 72 |  |  |  |  |  | 

Substance | copy number (streptavidin [1]) | copy number (streptavidin [2]) | copy number (streptavidin [3]) | Ratio (streptavidin [4]) | Ratio (streptavidin [5]) | Ratio (streptavidin [6]) | copy number [7] | copy number [8] | copy number [9] | Ratio [10] | Ratio [11] | Ratio [12]
Bio-YMNN (peptide) | 110 | 134 | 40 | 316 | 24 | 142 |  |  |  |  |  | 
SA-QIEH (peptide) |  |  |  |  |  |  | 35 | 20 | 27 | 91 | 3 | 2
SA-TAFI (peptide) |  |  |  |  |  |  | 44 | 58 | 48 | 167 | 167 | 75
SA-WFKL (peptide) |  |  |  |  |  |  | 3 | 5 | 2 | 11 | 11 | 11
SA-WKQQ (peptide) |  |  |  |  |  |  | 3 | 2 | 4 | 10 | 10 | 10
SA-WLVL (peptide) |  |  |  |  |  |  | 4 | 4 | 3 | 12 | 12 | 12
SA-WNSK (peptide) |  |  |  |  |  |  | 3 | 4 | 2 | 10 | 10 | 10
SA-WNTK (peptide) |  |  |  |  |  |  | 121 | 256 | 228 | 672 | 19 | 38
SA-WPPP (peptide) |  |  |  |  |  |  | 10 | 10 | 15 | 39 | 6 | 35
SA-WPPY (peptide) |  |  |  |  |  |  | 17 | 16 | 20 | 59 | 4 | 5
SA-WQQQ (peptide) |  |  |  |  |  |  | 403 | 422 | 596 | 1580 | 178 | 102
SA-WSVM (peptide) |  |  |  |  |  |  | 3 | 2 | 4 | 10 | 10 | 10
SA-WTSG (peptide) |  |  |  |  |  |  | 63 | 30 | 46 | 154 | 9 | 11
SA-WTWL (peptide) |  |  |  |  |  |  | 43 | 57 | 26 | 140 | 140 | 21
SA-WTYW (peptide) |  |  |  |  |  |  | 18 | 33 | 15 | 73 | 6 | 8
SA-WYKL (peptide) |  |  |  |  |  |  | 862 | 1160 | 285 | 2560 | 288 | 121
SA-YGTH (peptide) |  |  |  |  |  |  | 50 | 118 | 63 | 257 | 26 | 7
SA-YMSN (peptide) |  |  |  |  |  |  | 51 | 25 | 53 | 143 | 143 | 10
SA-YQYS (peptide) |  |  |  |  |  |  | 154 | 194 | 51 | 443 | 44 | 44
